The supplement of paper PMC7877785
± gives the uncertainty stated by the source.

Assay: self-splicing fitness, log relative to wild type (ln ratio); higher = more splicing; Tetrahymena group I intron in knt gene, E. coli kanamycin selection, DiMSum; sequences stand for … in CUCUCU…GGAGGGAAAAGUUAUCAGGCAUGCACCUGGUAGCUAGUCUUUAAACCAAUAGAUUGCAUCGGUUUAAAAGGCAAGACCGUCAAAUUGCGGGAAAGGGGUCAACAGCCGUUCAGUACCAAGUCUCAGGGGAAACUUUGAGAUGGCCUUGCAAAGGGUAUGGUAAUAAGCUGACGGACAUGGUCCUAACCACGCAGCCAAGUCCUAAGUCAACAGAUCUUCUGUUGAUAUGGAUGCAGUUCACAGACUAAAUGUCGGUCGGGGAAGAUGUAUUCUUCUCAUAAGAUAUAGUCGGACCUCUCCUUAAUGGGAGCUAGCGGAUGAAGUGAUGCAACACUGGAGCCGCUGGGAACUAAUUUGUAUGCGAAAGUAUAUUGAUUAGUUUUGGAGUACUCGUGGUCG
Procedure, shortened: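 The eight P1ex-region nucleotides of an intron in the knt kanamycin-resistance gene on pET-22b(+) were all randomised and the library put into E. coli BL21(DE3). Six replicate transformations were grown overnight at 37°C or 30°C on LB agar with or without 25 μg/mL kanamycin, together with 100 μg/mL carbenicillin, 50 μM IPTG and 0.2% rhamnose. Colonies were pooled and amplicon-sequenced on an Illumina HiSeq 2500. Fitness from DiMSum is the error-weighted combination of wild-type-normalised replicate fold changes, kanamycin over none.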

Row | Sequence | self-splicing fitness (ln) (30 °C) | self-splicing fitness (ln) (37 °C)
1 | AAGAAGCAAUAUUACGAACU | -0.3 ± 0.091 | 0.86 ± 0.11
2 | AAGAAGCAAUAUUACGAAUU | -1.53 ± 0.084 | -0.992 ± 0.12
3 | AAGAAGCAAUAUUACGACAU | -0.0917 ± 0.012 | -0.0361 ± 0.032
4 | AAGAAGCAAUAUUACGACGG | -1.52 ± 0.078 | -1.15 ± 0.14
5 | AAGAAGCAAUAUUACGAGGG | -3.5 ± 0.3 | -2.32 ± 0.35
6 | AAGAAGCAAUAUUACGAGUC | -2.53 ± 0.23 | -1.51 ± 0.25
7 | AAGAAGCAAUAUUACGCCAG | -2.87 ± 0.26 | -2.3 ± 0.27
8 | AAGAAGCAAUAUUACGCGCA | 0.0488 ± 0.077 | 0.115 ± 0.1
9 | AAGAAGCAAUAUUACGCGGG | -2.95 ± 0.2 | -0.684 ± 0.11
10 | AAGAAGCAAUAUUACGCGGU | -3.58 ± 0.3 | -1.54 ± 0.19
11 | AAGAAGCAAUAUUACGCUAU | -3.04 ± 0.17 | -1.44 ± 0.17
12 | AAGAAGCAAUAUUACGGAAC | – | -2.58 ± 0.45
13 | AAGAAGCAAUAUUACGGAAU | -1.67 ± 0.12 | -1.85 ± 0.2
14 | AAGAAGCAAUAUUACGGAUC | -1.23 ± 0.11 | 0.142 ± 0.17
15 | AAGAAGCAAUAUUACGGCUU | -2.42 ± 0.14 | -3.23 ± 0.24
16 | AAGAAGCAAUAUUACGGGCG | -1.48 ± 0.081 | -0.421 ± 0.11
17 | AAGAAGCAAUAUUACGGGUC | -4.04 ± 0.35 | -1.69 ± 0.21
18 | AAGAAGCAAUAUUACGUGCA | -0.663 ± 0.08 | -0.0733 ± 0.1
19 | AAGAAGCAAUAUUACGUGGA | -2.97 ± 0.12 | -2.44 ± 0.12
20 | AAGAAGCAAUAUUACGUUCG | -0.932 ± 0.084 | -0.625 ± 0.1
21 | AAGAAGCAAUAUUACGUUGA | -1.76 ± 0.12 | -2.25 ± 0.14
22 | AAGCAGCAAUAUUACGAAAA | -2.81 ± 0.25 | -1.77 ± 0.16
23 | AAGCAGCAAUAUUACGAAAU | -2.65 ± 0.11 | -1.33 ± 0.12
24 | AAGCAGCAAUAUUACGACGA | -0.888 ± 0.089 | -0.307 ± 0.094

Row | Sequence | self-splicing fitness (ln) (30 °C) | self-splicing fitness (ln) (37 °C)
25 | AAGCAGCAAUAUUACGAGCA | -0.694 ± 0.073 | -0.435 ± 0.086
26 | AAGCAGCAAUAUUACGAUAC | -2.7 ± 0.14 | -1.7 ± 0.18
27 | AAGCAGCAAUAUUACGAUGA | -0.809 ± 0.078 | -0.909 ± 0.083
28 | AAGCAGCAAUAUUACGCCGU | -1.22 ± 0.11 | -0.738 ± 0.13
29 | AAGCAGCAAUAUUACGCGAG | -0.949 ± 0.095 | -0.986 ± 0.11
30 | AAGCAGCAAUAUUACGCGCC | -1.33 ± 0.11 | -1.24 ± 0.15
31 | AAGCAGCAAUAUUACGCGGC | -3.33 ± 0.35 | -2.4 ± 0.24
32 | AAGCAGCAAUAUUACGCUAA | -1.46 ± 0.075 | -1.12 ± 0.086
33 | AAGCAGCAAUAUUACGCUCC | -1.82 ± 0.16 | -0.511 ± 0.2
34 | AAGCAGCAAUAUUACGCUGG | -3.27 ± 0.21 | -1.72 ± 0.15
35 | AAGCAGCAAUAUUACGCUUG | -2.89 ± 0.16 | -2.14 ± 0.16
36 | AAGCAGCAAUAUUACGGCUG | -2.92 ± 0.12 | -2.75 ± 0.16
37 | AAGCAGCAAUAUUACGGUAG | -3.38 ± 0.15 | -3.25 ± 0.2
38 | AAGCAGCAAUAUUACGUAAU | -1.49 ± 0.068 | -0.923 ± 0.094
39 | AAGCAGCAAUAUUACGUAGA | -2.7 ± 0.097 | -1.42 ± 0.082
40 | AAGCAGCAAUAUUACGUCAC | -4.94 ± 0.42 | -2.25 ± 0.3
41 | AAGCAGCAAUAUUACGUCAU | -3.1 ± 0.14 | -1.76 ± 0.14
42 | AAGCAGCAAUAUUACGUCUC | -1.28 ± 0.065 | -0.717 ± 0.077
43 | AAGCAGCAAUAUUACGUGUA | -1.83 ± 0.081 | -0.134 ± 0.077
44 | AAGCAGCAAUAUUACGUUUC | -3.3 ± 0.16 | -2.27 ± 0.31
45 | AAGGAGCAAUAUUACGAAAU | -2.26 ± 0.14 | -3 ± 0.29
46 | AAGGAGCAAUAUUACGAGCU | – | -0.204 ± 0.24
47 | AAGGAGCAAUAUUACGAGGG | -2.76 ± 0.24 | -2.93 ± 0.3
48 | AAGGAGCAAUAUUACGAUGA | -3.04 ± 0.24 | -2.02 ± 0.2

Row | Sequence | self-splicing fitness (ln) (30 °C) | self-splicing fitness (ln) (37 °C)
49 | AAGGAGCAAUAUUACGAUGU | -2.12 ± 0.14 | -2.28 ± 0.23
50 | AAGGAGCAAUAUUACGCACG | -1.84 ± 0.43 | -0.01 ± 0.45
51 | AAGGAGCAAUAUUACGCAUC | -5.17 ± 0.36 | -2.52 ± 0.19
52 | AAGGAGCAAUAUUACGCCGG | -3.01 ± 0.4 | -2.6 ± 0.36
53 | AAGGAGCAAUAUUACGCGCA | -1.82 ± 0.18 | -0.97 ± 0.2
54 | AAGGAGCAAUAUUACGCUAC | -2.75 ± 0.43 | –
55 | AAGGAGCAAUAUUACGCUGC | -3.07 ± 0.38 | -2.68 ± 0.26
56 | AAGGAGCAAUAUUACGCUUG | -1.86 ± 0.1 | -0.799 ± 0.13
57 | AAGGAGCAAUAUUACGGAAA | – | -0.83 ± 0.24
58 | AAGGAGCAAUAUUACGGGGU | -3.61 ± 0.18 | -2.31 ± 0.15
59 | AAGGAGCAAUAUUACGGUAC | -3.2 ± 0.47 | -2.19 ± 0.4
60 | AAGGAGCAAUAUUACGUAAC | -3.28 ± 0.25 | -2.96 ± 0.43
61 | AAGGAGCAAUAUUACGUACA | -2.75 ± 0.33 | -2.11 ± 0.21
62 | AAGGAGCAAUAUUACGUACU | -0.884 ± 0.11 | -0.189 ± 0.11
63 | AAGGAGCAAUAUUACGUAGC | – | -2.18 ± 0.42
64 | AAGGAGCAAUAUUACGUGCA | -3.03 ± 0.18 | -1.37 ± 0.17
65 | AAGGAGCAAUAUUACGUGCC | -3.03 ± 0.37 | -0.905 ± 0.39
66 | AAGGAGCAAUAUUACGUUUA | -2.95 ± 0.24 | -1.66 ± 0.16
67 | AAGUAGCAAUAUUACGAACG | -1.86 ± 0.11 | -1.17 ± 0.13
68 | AAGUAGCAAUAUUACGAAUU | -1.94 ± 0.12 | -0.748 ± 0.15
69 | AAGUAGCAAUAUUACGACCU | 0.0875 ± 0.13 | -0.703 ± 0.17
70 | AAGUAGCAAUAUUACGAUGC | -2.76 ± 0.16 | -0.209 ± 0.15
71 | AAGUAGCAAUAUUACGAUGG | -3.03 ± 0.2 | -2.75 ± 0.33
72 | AAGUAGCAAUAUUACGCUCU | -1.25 ± 0.18 | -1.29 ± 0.17

Row | Sequence | self-splicing fitness (ln) (30 °C) | self-splicing fitness (ln) (37 °C)
73 | AAGUAGCAAUAUUACGGCAU | -0.18 ± 0.094 | 0.382 ± 0.12
74 | AAGUAGCAAUAUUACGUCCC | -0.0634 ± 0.3 | -0.156 ± 0.24
75 | AAGUAGCAAUAUUACGUGCA | -0.781 ± 0.074 | -0.196 ± 0.098
76 | AAUAAGCAAUAUUACGAACA | -0.812 ± 0.15 | -0.462 ± 0.15
77 | AAUAAGCAAUAUUACGAACG | -1.5 ± 0.12 | -0.285 ± 0.17
78 | AAUAAGCAAUAUUACGACAA | -0.398 ± 0.13 | -0.323 ± 0.12
79 | AAUAAGCAAUAUUACGACGU | 0.233 ± 0.057 | 0.618 ± 0.072
80 | AAUAAGCAAUAUUACGAUAC | -2.25 ± 0.25 | -1.44 ± 0.44
81 | AAUAAGCAAUAUUACGAUUG | -2.35 ± 0.18 | -1.91 ± 0.23
82 | AAUAAGCAAUAUUACGCAAA | -1.62 ± 0.23 | -2.05 ± 0.25
83 | AAUAAGCAAUAUUACGCUAA | -2.46 ± 0.16 | -0.891 ± 0.13
84 | AAUAAGCAAUAUUACGCUAG | -1.79 ± 0.18 | -1.17 ± 0.17
85 | AAUAAGCAAUAUUACGCUGC | -3.69 ± 0.3 | -2.67 ± 0.38
86 | AAUAAGCAAUAUUACGCUUA | -3.19 ± 0.26 | -1.74 ± 0.22
87 | AAUAAGCAAUAUUACGGCAU | 0.0296 ± 0.085 | -0.0272 ± 0.097
88 | AAUAAGCAAUAUUACGGGUA | -2.49 ± 0.21 | -1.32 ± 0.14
89 | AAUAAGCAAUAUUACGGGUC | -3.18 ± 0.2 | -2.53 ± 0.22
90 | AAUAAGCAAUAUUACGGUUC | -2.72 ± 0.14 | -1.77 ± 0.15
91 | AAUAAGCAAUAUUACGUAAU | -1.38 ± 0.1 | -0.587 ± 0.13
92 | AAUAAGCAAUAUUACGUAUA | -1.76 ± 0.12 | -1.56 ± 0.13
93 | AAUAAGCAAUAUUACGUCGA | -1.38 ± 0.099 | -0.488 ± 0.12
94 | AAUAAGCAAUAUUACGUCUG | -1.59 ± 0.11 | -0.973 ± 0.11
95 | AAUAAGCAAUAUUACGUGAA | -2.46 ± 0.16 | -0.674 ± 0.13
96 | AAUAAGCAAUAUUACGUUCC | -1.96 ± 0.14 | -1.48 ± 0.18
